B1: A/B partial duplex (23mer duplex with ss tails), fluorescent (dsDNA)
DNA 1: GCACTGGCCGTCGTTTTACGGTCGTGACTGGGAAAACCCTGGCG
DNA 2: TTTTTTTTTTTTTTTTTTTTTTAGCCGTAAAACGACGGCCAGTGC
B2: F21 G4 DNA (structured_DNA)
DNA: GGGTTAGGGTTAGGGTTAGGG

Key:
Assay in all cases: fluorescence anisotropy
BLM642-1290 C1055N = BLM642-1290 C1055N (Homo sapiens, UniProt P54132 642-1290, C1055N)
[1] = biological target: BLM642-1290 C1055N/C1063N (Homo sapiens, UniProt P54132 642-1290, C1055N;C1063N)
BLM642-1290 WT = BLM642-1290 WT (Homo sapiens, UniProt P54132 642-1290)
BLM642-1290 WT, sequence (P54132 642-1290): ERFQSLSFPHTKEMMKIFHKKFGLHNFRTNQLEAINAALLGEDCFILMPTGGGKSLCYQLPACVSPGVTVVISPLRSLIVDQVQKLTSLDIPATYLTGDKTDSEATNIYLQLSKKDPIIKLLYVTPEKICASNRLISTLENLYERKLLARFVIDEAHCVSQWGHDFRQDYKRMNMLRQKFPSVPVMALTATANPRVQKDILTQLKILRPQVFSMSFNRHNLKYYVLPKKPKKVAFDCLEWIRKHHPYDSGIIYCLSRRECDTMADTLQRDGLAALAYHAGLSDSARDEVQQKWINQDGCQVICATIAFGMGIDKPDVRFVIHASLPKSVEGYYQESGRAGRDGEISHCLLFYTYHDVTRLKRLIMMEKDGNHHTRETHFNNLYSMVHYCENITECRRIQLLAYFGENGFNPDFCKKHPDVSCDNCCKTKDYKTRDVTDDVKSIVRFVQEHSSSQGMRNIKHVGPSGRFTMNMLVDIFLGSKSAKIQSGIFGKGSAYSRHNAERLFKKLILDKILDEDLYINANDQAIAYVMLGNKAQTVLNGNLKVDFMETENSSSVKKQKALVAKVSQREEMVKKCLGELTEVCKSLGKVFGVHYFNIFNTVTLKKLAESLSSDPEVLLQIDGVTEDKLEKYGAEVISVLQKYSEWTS

BLM642-1290 C1063N = BLM642-1290 C1063N (Homo sapiens, UniProt P54132 642-1290, C1063N)
BLM642-1290 C1063N, sequence (P54132 642-1290 C1063N): as the sequence (P54132 642-1290) above, with C422N counted along it

[2] = biological target: BLM642-1290 zinc-demetalated (WTzn-) (Homo sapiens, UniProt P54132 642-1290)
BLM642-1290 zinc-demetalated (WTzn-), sequence (P54132 642-1290): as the sequence (P54132 642-1290) above

BLM642-1290 C1055N, sequence (P54132 642-1290 C1055N): as the sequence (P54132 642-1290) above, with C414N counted along it
BLM642-1290 C1055N/C1063N, sequence (P54132 642-1290 C1055N/C1063N): as the sequence (P54132 642-1290) above, with C414N, C422N counted along it

Binder | Kd (BLM642-1290 C1055N) [nM] | Kd [1] [nM] | Kd (BLM642-1290 WT) [nM] | Kd (BLM642-1290 C1063N) [nM] | Kd [2] [nM]
B1 | 56 ± 1.8 | 209 ± 3.5 | – | – | –
B2 | – | – | 4.57 | 1990 | 4.85
